B1: Matriptase (protein)
chain: VVGGTDADEGEWPWQVSLHALGQGHICGASLISPNWLVSAAHCYIDDRGFRYSDPTQWTAFLGLHDQSQRSAPGVQERRLKRIISHPFFNDFTFDYDIALLELEKPAEYSSMVRPICLPDASHVFPAGKAIWVTGWGHTQYGGTGALILQKGEIRVINQTTCENLLPQQITPRMMCVGFLSGGVDSCQGDSGGPLSSVEADGRIFQAGVVSWGDGCAQRNKPGVYTRLPLFRDWIKENTGV
B2: MMP-7 (protein)
chain: YSLFPNSPKWTSKVVTYRIVSYTRDLPHITVDRLVSKALNMWGKEIPLHFRKVVWGTADIMIGFARGAHGDSYPFDGPGNTLAHAFAPGTGLGGDAHFDEDERWTDGSSLGINFLYAATHELGHSLGMGHSSDPNAVMYPTYGNGDPQNFKLSQDDIKGIQKLYGKRSNSRKK
B3: MMP-1 (protein)
chain: FVLTEGNPRWEQTHLTYRIENYTPDLPRADVDHAIEKAFQLWSNVTPLTFTKVSEGQADIMISFVRGDHRDNSPFDGPGGNLAHAFQPGPGIGGDAHFDEDERWTNNFREYNLHRVAAHELGHSLGLSHSTDIGALMYPSYTFSGDVQLAQDDIDGIQAIYGRSQNPVQPIGPQTPKACDSKLTFDAITTIRGEVMFFKDRFYMRTNPFYPEVELNFISVFWPQLPNGLEAAYEFADRDEVRFFKGNKYWAVQGQNVLHGYPKDIYSSFGFPRTVKHIDAALSEENTGKTYFFVANKYWRYDEYKRSMDPGYPKMIAHDFPGIGHKVDAVFMKDGFFYFFHGTRQYKFDPKTKRILTLQKANSWFNCRKN

What was measured:
[1] = biological target: AxCT mask27 EGFR EH104 L001 version 1
[2] = biological target: AxCT mask27 EGFR EH104 L040 version 1
[3] = biological target: AxCT mask27 EGFR EH104 L041 version 1
[4] = biological target: AxCT mask27 EGFR EH104 L043 version 1
[5] = biological target: AxCT mask27 EGFR EH104 L054 version 1
[6] = biological target: AxCT mask27 EGFR EH104 L055 version 1
[7] = biological target: AxCT mask27 EGFR EH104 L056 version 1
[8] = biological target: AxCT mask27 EGFR EH104 L057 version 1
[9] = biological target: AxCT mask27 EGFR EH104 L058 version 1
[10] = biological target: AxCT mask27 EGFR EH104 L059 version 1
[11] = biological target: AxCT mask27 EGFR EH104 L060 version 1
[12] = biological target: AxCT mask27 EGFR EH104 L061 version 1
[13] = biological target: AxCT mask27 EGFR EH104 L062 version 1
[14] = biological target: AxCT mask27 EGFR EH104 L063 version 1
[15] = biological target: AxCT mask27 EGFR EH104 L064 version 1
[16] = biological target: AxCT mask27 EGFR EH104 L065 version 1
[17] = biological target: AxCT mask27 EGFR EH104 L066 version 1
[18] = biological target: AxCT mask27 EGFR EH104 L067 version 1
[19] = biological target: AxCT mask27 EGFR EH104 L068 version 1
[20] = biological target: AxCT mask27 EGFR EH104 L069 version 1
[21] = biological target: AxCT mask27 EGFR EH104 L070 version 1
[22] = biological target: AxCT mask27 EGFR EH104 L071 version 1
[23] = biological target: AxCT mask27 EGFR EH104 L072 version 1
[24] = biological target: AxCT mask27 EGFR EH104 L073 version 1
[25] = biological target: AxCT mask27 EpCAM H90 L001 version 1
[26] = biological target: AxCT mask27 EpCAM H90.2 L040 version 1
[27] = biological target: AxCT mask27 EpCAM H90.2 L041 version 1
[28] = biological target: AxCT mask27 EpCAM H90.2 L043 version 1
[29] = biological target: AxCT mask27 EpCAM H90.2 L059 version 1
[30] = biological target: AxCT mask27 EpCAM H90.2 L060 version 1
[31] = biological target: AxCT mask27 EpCAM H90.2 L061 version 1
[32] = biological target: AxCT mask27 EpCAM H90.2 L063 version 1
[33] = biological target: AxCT mask27 EpCAM H90.2 L064 version 1
[34] = biological target: AxCT mask27 EpCAM H90.2 L073 version 1
[35] = biological target: AxCT mask27 EpCAM H90.2 L075 version 1
[36] = biological target: AxCT mask27 EpCAM H90.2 L076 version 1
[37] = biological target: AxCT mask27 EpCAM H90.2 NCLV

Row | Protein | Percent cleavage [1] | Percent cleavage [2] | Percent cleavage [3] | Percent cleavage [4] | Percent cleavage [5] | Percent cleavage [6] | Percent cleavage [7] | Percent cleavage [8] | Percent cleavage [9] | Percent cleavage [10] | Percent cleavage [11] | Percent cleavage [12] | Percent cleavage [13] | Percent cleavage [14] | Percent cleavage [15] | Percent cleavage [16] | Percent cleavage [17] | Percent cleavage [18] | Percent cleavage [19] | Percent cleavage [20] | other results
1 | B1 | 37% | 67% | 62% | 59% | 37% | 53% | 39% | 36% | 23% | 33% | 62% | 20% | 52% | 49% | 0% | 0% | 0% | 0% | 0% | 0% | Percent cleavage [21]: 13%; Percent cleavage [22]: 0%; Percent cleavage [23]: 0%; Percent cleavage [24]: 0%; Percent cleavage [25]: 42%; Percent cleavage [26]: 93%; Percent cleavage [27]: 80%; Percent cleavage [28]: 79%; Percent cleavage [29]: 39%; Percent cleavage [30]: 92%; Percent cleavage [31]: 22%; Percent cleavage [32]: 68%; Percent cleavage [33]: 0%; Percent cleavage [34]: 0%; Percent cleavage [35]: 0%; Percent cleavage [36]: 0%; Percent cleavage [37]: 0%
2 | B2 | 71% | 0% | 0% | 0% | 24% | 67% | 6% | 0% | 0% | 0% | 9% | 26% | 25% | 37% | 28% | 60% | 0% | 0% | 0% | 0% | Percent cleavage [21]: 9%; Percent cleavage [22]: 30%; Percent cleavage [23]: 0%; Percent cleavage [24]: 27%; Percent cleavage [25]: 92%; Percent cleavage [26]: 0%; Percent cleavage [27]: 0%; Percent cleavage [28]: 0%; Percent cleavage [29]: 0%; Percent cleavage [30]: 9%; Percent cleavage [31]: 35%; Percent cleavage [32]: 48%; Percent cleavage [33]: 32%; Percent cleavage [34]: 43%; Percent cleavage [35]: 0%; Percent cleavage [36]: 0%; Percent cleavage [37]: 0%
3 | B3 | 40% | 6% | 0% | 0% | 0% | 10% | 6% | 7% | 0% | 0% | 0% | 0% | 0% | 0% | 0% | 10% | 6% | 0% | 0% | 0% | Percent cleavage [21]: 0%; Percent cleavage [22]: 0%; Percent cleavage [23]: 0%; Percent cleavage [24]: 0%; Percent cleavage [25]: 48%; Percent cleavage [26]: 0%; Percent cleavage [27]: 0%; Percent cleavage [28]: 0%; Percent cleavage [29]: 0%; Percent cleavage [30]: 0%; Percent cleavage [31]: 0%; Percent cleavage [32]: 0%; Percent cleavage [33]: 0%; Percent cleavage [34]: 0%; Percent cleavage [35]: 0%; Percent cleavage [36]: 0%; Percent cleavage [37]: 0%
